Measured values from US7294706.

Molecular target: FGFR2 over-expressed on CHO cells (CHO-FGFR2) and on 32D cells (32D-FGFR2) (UniProt P21803)
Assay: competition of unlabeled protein with 125I-FGF4 (Gly79-Leu206) for CHO-FGFR2 cells, +heparin

FGF4 (Gly79-Leu206) N89A/K198A/K183A/K188A (from UniProt P08620 79-206) (ligand)
IC50 mutant/IC50 wild-type (ratio (IC50 mutant/IC50 wild-type)): > 1000
